Read-outs that look alike come from different tables or passages of the source. Each block holds one compound with its values, some of them ahead of it. Positions of bridges follow the written chain, without caps; N, C: chain ends. Residues, ends and D or L forms follow the SMILES beside them.
What was measured:
IgG3 = IgG3 (Homo sapiens, UniProt P01860); format: binding; set-up: all human subtypes derived from myeloma patients; purchased Calbiochem 400124; host or cells: myeloma patients; conditions: for % IgG Capture - Batch Binding, Human IgG3: Table 9, immobilized peptide, 5.0 mg/ml resin load
Method in brief: (§1)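 Percent bound = control mass minus unbound mass, with unbound IgG read at A280 after 1–1.5 h room-temperature incubation with the peptide resin in PBST pH 7.2 or TBST pH 7.5. Bound IgG was eluted 30–60 min with 0.1 M citrate pH 4.0 and/or bicarbonate pH 8.5. Recovery is given as percent of total load.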

human IgG2 = target: T1, human IgG2 (Homo sapiens, UniProt P01859); format: binding; conditions: for % IgG Capture - Batch Binding, Human IgG2: Table 9, immobilized peptide, 5.0 mg/ml resin load
T1 construct: all human subtypes derived from myeloma patients; purchased Calbiochem 400122; host or cells: myeloma patients
Method in brief: (§2)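 Read-out is A280 of unbound IgG (1.4 mg/ml extinction coefficient), with percent bound derived against non-filtered or negative controls. Targets were incubated with immobilized peptides in PBST or TBST for 1-1.5 h at room temperature. Hydrolyzed Sepharose and immobilized Protein A serve as negative and positive controls.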

mouse IgG = format: binding
Method in brief: (§3)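 Unfractionated IgG in PBST (10 mM phosphate, 150 mM NaCl, 0.01% Tween 20, pH 7.2) or TBST (50 mM Tris, pH 7.5) was batch-incubated with immobilized peptide resin for 1-1.5 h at room temperature. Unbound IgG was quantitated by A280, and percent bound was taken by subtraction from control values.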

human IgG [1] = format: binding
Method in brief: as §3

bovine IgG = format: binding; conditions: Table 11; unfractionated IgG
Method in brief: as §3

goat IgG = format: binding; conditions: Table 11; unfractionated IgG
Method in brief: as §3

human IgG1 = target: T2, human IgG1 (Homo sapiens, UniProt P01857); format: binding; conditions: for % IgG Capture - Batch Binding, Human IgG1: Table 9, immobilized peptide, 5.0 mg/ml resin load
T2 construct: all human subtypes derived from myeloma patients; purchased Calbiochem 400120; host or cells: myeloma patients
Method in brief: as §1

IgG4 = IgG4 (Homo sapiens, UniProt P01861); format: binding; set-up: all human subtypes derived from myeloma patients; purchased Calbiochem 400126; host or cells: myeloma patients; conditions: for % IgG Capture - Batch Binding, Human IgG4: Table 9, immobilized peptide, 5.0 mg/ml resin load
Method in brief: as §2

human IgG [2] = test: Dynamic (mini-column) binding capacity
Method: These media were used to determine the effect of ligand density on human IgG binding capacity in both static (filterplate) and dynamic (mini-column) modes with commercial immobilized recombinant Protein A (Repligen, IPA400) at a single density as control.
The IgG solution was loaded onto the column at a flow rate of 0.2 ml/minute (170 cm/hr). […] At the end of the loading period, the column was washed with PBS until the absorbance at 280 nm of the column eluant returned to baseline. […] Neutralizing the pH of the eluted fractions was unnecessary since the total IgG eluted was determined by total protein absorbance at 280 nm.
To establish total media capacities, IgG was loaded onto the columns until the absorbances of the column load and flow through streams were identical (loading to full capacity). After washing the column to baseline, bound IgG was eluted and the total amount captured from this elution fraction determined. The total capacity of the media (mg IgG/ml media) as total IgG captured divided by the column bed volume was calculated.
Additionally, column capacities at 10% breakthrough were calculated from the online A280 measurements of column flowthrough streams. The A280 curves obtained for the column of interest and for an equivalent “blank” column containing hydrolyzed Sepharose FF 4 media were aligned. The difference in areas between these curves (for a retained and non-retained target) from the time of injection to the time at which the A280 value for the column of interest had risen to 10% of the maximum A280 absorbance (100%) obtained for the load solution at 100% IgG capture saturation (10% breakthrough) was graphically integrated. A standard curve was used to relate the integrated area to mg IgG bound and capacity calculated as total IgG bound divided by column bed volume.

[3] = Table 10, elution 0.1 M sodium citrate buffer, pH 4.0
[4] = Table 10, elution 0.1 M sodium bicarbonate buffer, pH 8.5
[5] = Table 14, average ligand density […] μM/ml

IgG4, sequence (P01861 1-327 isoform P01861-1): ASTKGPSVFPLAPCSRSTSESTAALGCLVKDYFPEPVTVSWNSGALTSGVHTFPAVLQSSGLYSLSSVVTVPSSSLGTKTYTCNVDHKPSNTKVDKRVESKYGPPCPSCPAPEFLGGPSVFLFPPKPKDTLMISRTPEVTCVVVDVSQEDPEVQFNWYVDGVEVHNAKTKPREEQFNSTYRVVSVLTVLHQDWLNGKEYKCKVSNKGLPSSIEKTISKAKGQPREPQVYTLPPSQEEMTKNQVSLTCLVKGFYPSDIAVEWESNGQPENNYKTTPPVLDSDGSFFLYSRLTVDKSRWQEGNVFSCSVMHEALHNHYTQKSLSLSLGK
IgG3, sequence (P01860 1-377 isoform P01860-1): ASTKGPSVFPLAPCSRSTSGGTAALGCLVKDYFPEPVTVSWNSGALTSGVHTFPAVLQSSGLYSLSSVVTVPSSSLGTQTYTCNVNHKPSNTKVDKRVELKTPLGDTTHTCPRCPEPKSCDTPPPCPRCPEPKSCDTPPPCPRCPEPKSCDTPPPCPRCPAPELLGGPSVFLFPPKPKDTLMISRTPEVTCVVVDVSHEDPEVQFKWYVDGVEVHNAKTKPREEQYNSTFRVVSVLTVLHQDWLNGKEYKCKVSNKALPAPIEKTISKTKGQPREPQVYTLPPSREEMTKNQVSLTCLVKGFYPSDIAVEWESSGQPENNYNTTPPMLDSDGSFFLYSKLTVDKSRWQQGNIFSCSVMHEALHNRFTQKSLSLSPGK
T2 sequence (P01857 1-330 isoform P01857-1): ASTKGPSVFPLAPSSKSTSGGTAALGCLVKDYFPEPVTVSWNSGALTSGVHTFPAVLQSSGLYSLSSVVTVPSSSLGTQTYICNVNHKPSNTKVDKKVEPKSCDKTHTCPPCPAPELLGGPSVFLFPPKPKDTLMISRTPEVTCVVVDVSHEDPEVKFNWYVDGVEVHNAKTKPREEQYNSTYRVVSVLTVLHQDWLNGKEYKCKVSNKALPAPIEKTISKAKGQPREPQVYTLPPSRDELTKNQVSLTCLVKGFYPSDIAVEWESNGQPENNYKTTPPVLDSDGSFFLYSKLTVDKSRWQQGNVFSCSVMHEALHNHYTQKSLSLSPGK
T1 sequence (P01859 1-326 isoform P01859-1): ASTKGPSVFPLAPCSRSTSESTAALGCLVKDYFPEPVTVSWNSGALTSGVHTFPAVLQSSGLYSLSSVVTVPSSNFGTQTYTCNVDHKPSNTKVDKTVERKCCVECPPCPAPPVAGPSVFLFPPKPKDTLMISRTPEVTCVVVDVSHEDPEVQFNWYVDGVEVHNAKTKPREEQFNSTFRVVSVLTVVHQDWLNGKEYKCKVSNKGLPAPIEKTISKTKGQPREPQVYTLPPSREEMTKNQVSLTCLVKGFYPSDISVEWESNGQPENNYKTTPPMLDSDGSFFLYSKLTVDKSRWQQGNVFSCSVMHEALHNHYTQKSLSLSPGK

% IgG Capture - Batch Binding, Human IgG3 (IgG3): 76%
% IgG Capture - Batch Binding, Human IgG2 (human IgG2): 15%
% IgG Capture - Batch Binding, Mouse IgG (mouse IgG; Table 11, unfractionated IgG): 0%
% IgG Capture - Batch Binding, Human IgG (human IgG [1]; Table 11, unfractionated IgG): 4%
% IgG Capture - Batch Binding, Bovine IgG (bovine IgG): 0%
% IgG Capture - Batch Binding, Goat IgG (goat IgG): 0%
% IgG Capture - Batch Binding, Human IgG1 (human IgG1): 13%
% IgG Capture - Batch Binding, Human IgG4 (IgG4): 9%
Compound: CC[C@H](C)[C@@H]1NC(=O)[C@H](CCCCN)NC(=O)[C@@H](NC(=O)[C@H](Cc2c[nH]c3ccccc23)NC(=O)[C@H](Cc2ccc(O)cc2)NC(=O)[C@H](CO)NC(=O)CNC(=O)[C@H](C)NC(C)=O)CSSC[C@@H](C(=O)N2CCC[C@H]2C(=O)N[C@@H](CCC(N)=O)C(=O)N[C@@H](CO)C(=O)N2CCC[C@H]2C(=O)NCC(=O)N2CCC[C@H]2C(=O)N[C@@H](CCC(=O)O)C(=O)NCC(=O)NCC(=O)NCC(=O)N[C@@H](CCCCN)C(N)=O)NC(=O)[C@H](C(C)C)NC(=O)[C@H](CC(=O)O)NC(=O)[C@H](Cc2c[nH]c3ccccc23)NC1=O [DX392] (Ac-AGSYWCKIWDVCPQSPGPEGGGK-NH2; disulfide 6-12 (inferred))

% IgG Capture - Batch Binding, Human IgG3 (IgG3): 85%
% IgG Capture - Batch Binding, Human IgG2 (human IgG2): 2%
% IgG Capture - Batch Binding, Mouse IgG (mouse IgG; Table 11, unfractionated IgG): 0%
% IgG Capture - Batch Binding, Human IgG (human IgG [1]; Table 11, unfractionated IgG): 19%
% IgG Capture - Batch Binding, Bovine IgG (bovine IgG): 0%
% IgG Capture - Batch Binding, Goat IgG (goat IgG): 0%
% IgG Capture - Batch Binding, Human IgG1 (human IgG1): 21%
% IgG Capture - Batch Binding, Human IgG4 (IgG4): 4%
Compound: CC(=O)N[C@@H](C)C(=O)NCC(=O)N[C@@H](CCCCN)C(=O)N[C@@H](Cc1ccc(O)cc1)C(=O)N[C@@H](Cc1c[nH]c2ccccc12)C(=O)N[C@H]1CSSC[C@@H](C(=O)N2CCC[C@H]2C(=O)N[C@@H](C)C(=O)N[C@@H](CC(N)=O)C(=O)N2CCC[C@H]2C(=O)NCC(=O)N2CCC[C@H]2C(=O)N[C@@H](CCC(=O)O)C(=O)NCC(=O)NCC(=O)NCC(=O)N[C@@H](CCCCN)C(N)=O)NC(=O)[C@H](C(C)C)NC(=O)CNC(=O)[C@H](Cc2c[nH]c3ccccc23)NC(=O)[C@H](CC(C)C)NC(=O)[C@H](CC(N)=O)NC1=O [DX395]

% IgG Capture - Batch Binding, Human IgG3 (IgG3): 7%
Human IgG3 elu pH 4.0 (% of Total Load) (IgG3; [3]): 5%
Human IgG2 elu pH 8.5 (% of Total Load) (human IgG2; [4]): 32%
Human IgG2 elu pH 4.0 (% of Total Load) (human IgG2; [3]): 12%
hIgG2 elution pH 2.5 (% of Total Load) (human IgG2; Table 13): 78%
hIgG2 elution pH 3.0 (% of Total Load) (human IgG2; Table 13): 69%
hIgG2 elution pH 3.5 (% of Total Load) (human IgG2; Table 13): 55%
hIgG2 elution pH 4.5 (% of Total Load) (human IgG2; Table 13): 31%
hIgG2 elution pH 9.0 (% of Total Load) (human IgG2; Table 13): 42%
hIgG2 elution pH 9.5 (% of Total Load) (human IgG2; Table 13): 47%
Batch Binding (% Capture of Total Load) hIgG2 (human IgG2; peptide immobilized on NHS activated sepharose 4 fast flow, target ligand density 2.0 μmole/ml, batch filterplate, hIgG2): 80%
% IgG Capture - Batch Binding, Mouse IgG (mouse IgG; Table 11, unfractionated IgG): 2%
% IgG Capture - Batch Binding, Mouse IgG (mouse IgG; [5]): 2%
% IgG Capture - Batch Binding, Human IgG (human IgG [1]; Table 11, unfractionated IgG): 54%
% IgG Capture - Batch Binding, Human IgG (human IgG [1]; [5]): 71%
Batch Binding (% Capture of Total Load) hIgG (human IgG [1]; peptide immobilized on NHS activated sepharose 4 fast flow, target ligand density 2.0 μmole/ml, batch filterplate, hIgG): 79%
% IgG Capture - Batch Binding, Human IgG1 (human IgG1): 58%
Human IgG1 elu pH 8.5 (% of Total Load) (human IgG1; [4]): 44%
Human IgG1 elu pH 4.0 (% of Total Load) (human IgG1; [3]): 14%
hIgG1 elution pH 2.5 (% of Total Load) (human IgG1; Table 13): 78%
hIgG1 elution pH 3.0 (% of Total Load) (human IgG1; Table 13): 75%
hIgG1 elution pH 3.5 (% of Total Load) (human IgG1; Table 13): 54%
hIgG1 elution pH 4.5 (% of Total Load) (human IgG1; Table 13): 55%
hIgG1 elution pH 5.5 (% of Total Load) (human IgG1; Table 13): 8%
hIgG1 elution pH 9.0 (% of Total Load) (human IgG1; Table 13): 44%
hIgG1 elution pH 9.5 (% of Total Load) (human IgG1; Table 13): 45%
Batch Binding (% Capture of Total Load) hIgG1 (human IgG1; peptide immobilized on NHS activated sepharose 4 fast flow, target ligand density 2.0 μmole/ml, batch filterplate, hIgG1): 88%
% IgG Capture - Batch Binding, Human IgG4 (IgG4): 33%
Human IgG4 elu pH 8.5 (% of Total Load) (IgG4; [4]): 22%
hIgG4 elution pH 2.5 (% of Total Load) (IgG4; Table 13): 49%
hIgG4 elution pH 3.0 (% of Total Load) (IgG4; Table 13): 49%
hIgG4 elution pH 3.5 (% of Total Load) (IgG4; Table 13): 53%
hIgG4 elution pH 4.5 (% of Total Load) (IgG4; Table 13): 23%
hIgG4 elution pH 5.5 (% of Total Load) (IgG4; Table 13): 4%
hIgG4 elution pH 9.0 (% of Total Load) (IgG4; Table 13): 45%
hIgG4 elution pH 9.5 (% of Total Load) (IgG4; Table 13): 62%
Batch Binding (% Capture of Total Load) hIgG4 (IgG4; peptide immobilized on NHS activated sepharose 4 fast flow, target ligand density 2.0 μmole/ml, batch filterplate, hIgG4): 58%
Capacity (mg IgG/mL resin) 10% Breakthrough (human IgG [2]; Ligand Density 0.17 μM/mL): 0.1 mg IgG/mL resin
Capacity (mg IgG/mL resin) Total Dynamic (human IgG [2]; Ligand Density 0.17 μM/mL): 0.6 mg IgG/mL resin
Capacity (mg IgG/mL resin) 10% Breakthrough (human IgG [2]; Ligand Density 0.84 μM/mL): 2.6 mg IgG/mL resin
Capacity (mg IgG/mL resin) Total Dynamic (human IgG [2]; Ligand Density 0.84 μM/mL): 5.8 mg IgG/mL resin
Capacity (mg IgG/mL resin) 10% Breakthrough (human IgG [2]; Ligand Density 1.45 μM/mL): 2.9 mg IgG/mL resin
Capacity (mg IgG/mL resin) Total Dynamic (human IgG [2]; Ligand Density 1.45 μM/mL): 6.4 mg IgG/mL resin
Capacity (mg IgG/mL resin) 10% Breakthrough (human IgG [2]; Ligand Density 2.75 μM/mL): 8.5 mg IgG/mL resin
Capacity (mg IgG/mL resin) Total Dynamic (human IgG [2]; Ligand Density 2.75 μM/mL): 24.1 mg IgG/mL resin
Compound: Ac-GDRRACSRDWSGALVWCAGHEPGPEGGGK-NH2 (not fully specified (bridges); printed as Ac-GDRRACSRDWSGALVWCAGHEPGPEGGGK-NH2; cysteine pairing not given here) [DX253]

Source: patent US20030199671A1, “Binding molecules for Fc-region polypeptides” (priority 2001, published 2003)
